Results as given in article doi:10.1101/2024.02.27.582255 (bioRxiv, 2024).
Ends that are not written are not given here. * marks the point of attachment. For = O=C*

Target: the molecule itself
Assay: ThT fluorescence + TEM

| Protein | binding result |
| --- | --- |
| MEFVAKLFKFFKDLLGKFLGNN [deformylated wild-type phenol soluble modulin α3 (df-WT PSMα3)] | binds |
| For-MEFVAKLFKFFKDLLGKFLGNN [formylated wild-type phenol soluble modulin α3 (f-WT PSMα3)] | binds |
